# Patent US7419813B2, “Fructosyl peptide oxidase” (Kikkoman Corporation, priority 2001, dated 2008)
# B1: Eupenicillium terrenum ATCC 18547: fructosyl peptide oxidase produced by Eupenicillium terrenum ATCC 18547 with less action on ε-fructosyl lysine; amino acid sequence SEQ ID NO: 3 (protein, listed as Eupenicillium terrenum)
# chain: MAHSRASTKVVVVGGGGTIGSSTALHLIRSGYTPSNITVLDVYKTPSLQSAGHDLNKIMGIRLRNGPDLQLSLESLDMWQNDELFKPFFHQVGMIDCSSSKEGIENLRRKYQTLLDAGIGLEKTNVWLESEDEILAKAPNFTREQVKGWKGLFCTDGGWLAAAKAINAIGIFLQDKGVKFGFGGAGTFQQPLFAADGKTCIGLETTDGTKYFADKVVLAAGAWSPTLVDLEDQCVSKAWVFAHIQLTPKEADAYKNVPVVYDGEYGFFFEPNEYGVIKVCDEFPGFSRFKLHQPYGAASPKMISVPRSHAKHPTDTYPDASEVTIRKAIARFLPEFKDKELFNRTMCWCTDTADANLLICEHPKWKNFILATGDSGHSFKLLPNIGKHVVELLEGSLSQEMAGAWRWRPGGDALRSRRGAPAKDLAEMPGWKHDAHL
# Legend:
# [1] = type: physicochemical; details: pH 8
# Procedure: For example, 200 mM potassium phosphate buffer (pH 8.0) is used for a treatment at 45° C. for 10 minutes to determine the remaining activities of the oxidases of the invention. The oxidases of the invention having high stability at a high temperature range are particularly preferable for industrial use. The oxidases of the invention may, for example, have a remaining activity of 50% or higher, preferably 70% or higher, and more preferably 80% or higher under the above-described conditions. For example, 200 mM potassium phosphate buffer (pH 8.0) is used for a treatment at 45° C. for 10 minutes. Then, the remaining activities of the enzymes of the invention are determined. The oxidases of the invention having high stability at a high temperature range are particularly preferable for industrial use. The oxidases of the invention that have less action on ε-fructosyl lysine may, for example, have a remaining activity of 50% or higher, preferably 70% or higher, more preferably 80% or higher under the above-described conditions. […] Next, the physiochemical properties of these oxidases were determined. […] Each crude enzyme sample was heat-treated at 45° C. for 10 minutes, and then its activity for fructosyl valyl histidine was determined and compared to the activity before treatment. […]
# [2] = Identifying reaction product by HPLC (TSK gel Amide-80); type: biochemical; details: 2 mM fructosyl valyl histidine, 0.003U oxidase, 37° C. for 2 hours
# Procedure: (§1) Reaction solution was assayed by HPLC to identify reaction products. First, 50 μl of reaction solution (2 mM fructosyl valyl histidine, 5 mM phosphate buffer (pH 8.0), 0.003U of the inventive oxidase) was incubated at 37° C. for 2 hours, diluted (10×) and then assayed for the reaction products in a TSK gel Amide-80 column (available from Tosoh Co., Ltd.). As a control, the same procedure was repeated except for using a buffer instead of the enzyme.
# as §1, with “Similarly,” for “As”, “control sample” for “control, the same procedure”, “obtained by” for “repeated except for”, “enzyme and assayed.” for “enzyme.”
# [3] = Km value for fructosyl valyl histidine (Lineweaver-Burk plot); type: biochemical; details: purified oxidase
# Procedure: In the above-described activity assay, the activity of the oxidase was monitored using different concentrations of fructosyl valyl histidine (substrate), and Michaelis constant (Km) was determined from a Lineweaver-Burk plot.
# In the above-described activity assay, activity was monitored using different concentrations of fructosyl valyl histidine (substrate), and Michaelis constant (Km) was determined from a Lineweaver-Burk plot.
molecule,measurement,setting,value
B1,remaining activity following heat treatment at 45° C. for 10 minutes,[1],approximately 100%
same,reaction product identified by HPLC,[2],a peak was detected only for valyl histidine
same,Km,[3],4.25 mM
